Biological target: T1, NY-ESO-1 (the LAGE-1S transcript variant shares the same epitope) peptide on HLA-A*02:01 (human)
T1 peptide: SLLMWITQC
Experiment: multimer staining

- binding result: recognises
B1: 8F NY-ESO-1 TCR (TCR, V domains shown)
Valpha: EEDPQALSIQEGENATMNCSYKTSINNLQWYRQNSGRGLVHLILIRSNEREKHSGRLRVTLDTSKKSSSLLITASRAADTASYFCATDGAGKSTFGDGTTLTVKP
Vbeta: VIQSPRHEVTEMGQEVTLRCKPISGHDYLFWYRQTMMRGLELLIYFNNNVPIDDSGMPEDRFSAKMPNASFSTLKIQPSEPRDSAVYFCASTIGAQPQHFGDGTRLSIL
